Values of other authors, collected in patent publication US20080181869A1, “THERAPEUTICS TO FACILITATE CELL TRANSPLANTATION FOR LIVER DISEASE” (priority 2006, published 2008).

What was measured:
lung fibroblasts = settings: in vitro
gene for TGF-β1 = settings: bleomycin-induced model of lung fibrosis, exogenous interferon-γ
[1] = test system: hepatic stellate cells (HSCs); settings: rat CCl4 model of liver damage
[2] = in vivo
[3] = test system: rat model of hypertension
liver = settings: after hepatic resection
tumor cell = settings: in vitro or in vivo studies

For “interferon-γ: interferon that inhibits proliferation of lung fibroblasts”, the “proliferation of lung fibroblasts” value (lung fibroblasts) is given as “inhibits the proliferation of lung fibroblasts in a dose-dependent manner”, the “synthesis of protein in fibroblasts” value (lung fibroblasts) is given as “reduces the synthesis of protein in fibroblasts” and the “transcription of the gene for TGF-β1” value (gene for TGF-β1) is given as “down-regulated”.

In the case of relaxin, the “collagen deposition by hepatic stellate cells” value [1] is given as “inhibit collagen deposition”, the adverse events [2] is given as “few adverse events” and the “cardiac and renal fibrosis” value [3] is given as “reversing cardiac and renal fibrosis”.

B1: follistatin: peptide inhibitor of Activin A, a member of the transforming growth factor-beta superfamily (protein, UniProt P19883 30-344, looked up)
Follistatin: GNCWLRQAKNGRCQVLYKTELSKEECCSTGRLSTSWTEEDVNDNTLFKWMIFNGGAPNCIPCKETCENVDCGPGKKCRMNKKNKPRCVCAPDCSNITWKGPVCGLDGKTYRNECALLKARCKEQPELEVQYQGRCKKTCRDVFCPGSSTCVVDQTNNAYCVTCNRICPEPASSEQYLCGNDGVTYSSACHLRKATCLLGRSIGLAYEGKCIKAKSCEDIQCTGGKKCLWDFKVGRGRCSLCDELCPDSKSDEPVCASDNATYASECAMKEAACSSGVLLEVKHSGSCNSISEDTEEEEEDEDQDYSFPISSILEW
For B1, the “TGF-β-induced secretion of collagen from HSC” value (HSC) is given as “inhibit TGF-β-induced secretion of collagen”, the liver weight (liver) is given as “significantly increases liver weight” and the reduction in fibrosis (CCl4-exposed rats; CCl4-exposed rats treated with the peptide) is given as 32%. The “decrease in hepatocyte apoptosis” value (CCl4-exposed rats; CCl4-exposed rats, during treatment) was 87%, the “time of maximal effect on hepatocyte apoptosis” value (CCl4-exposed rats; week of follistatin treatment) was 4 week and the tumor cell growth (tumor cell) was “did not accelerate tumor cell growth”.
